Earlier results as cited in article PMC8242001.
pKd: −log10 of the molar value.

Target: eIF4E (Saccharomyces cerevisiae) (UniProt P07260)
Experiment: ITC

Chain of UniProt P07260 (P07260 whole entry): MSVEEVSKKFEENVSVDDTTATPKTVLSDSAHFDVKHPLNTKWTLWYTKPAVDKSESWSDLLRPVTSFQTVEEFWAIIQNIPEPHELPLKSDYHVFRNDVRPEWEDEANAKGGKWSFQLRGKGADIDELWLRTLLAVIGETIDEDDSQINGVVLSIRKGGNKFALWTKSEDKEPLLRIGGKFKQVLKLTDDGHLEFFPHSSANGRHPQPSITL

pKd: 7.70
Substance: Caf20 (from UniProt P12962)
